Where a chain is given by its changes, count along the chain named.
B1: 5D1 (antibody)
heavy chain variable region: QVQLQQPGAELVKPGASVKMSCKASGYTFTSSWITWVKDRPGQGLEWIGDIYPGNGNTNYNEKFKSKATLTVDTSSNTVYMQLSSLTSEDSAVHYCARDGRGYFDYWGPGTTLTVSS
light chain variable region: DIQMTQTTSSLSASLGDRVTIICRASQDISNFLNWYQQKPDGTVKLLMYDTSILQSGVPSRFSGRGSGADYSLTINNLEQEDLATYFCQQGKTLPYTFGGGTKLEIK
B2: 13D2 (antibody, V domains shown)
VH: DVQLQESGPGMVKPSQSLSLTCTVTGYSITSDYDWHWIRHFPGNKLEWMGYISYSGSTKYNPSLKSRISITHDTSKNHFFLKLNSVTAEDTATYYCARENDFPGFWYFDVWGTGTTVTVSS
VL: DIVMSQSPSSQVVSVGEKVTVTCTSSQSLLYGTNQKNYLAWYQQKPGQSPKLLIYWASIRESGVPDRFTGSGSGTDFTLTISSVKAEDLAVYYCQQYYSYPLTFGAGTKLELK
B3: monoclonal antibody 8A2 (antibody, V domains shown)
VH: QVQLKESGPGLVAPSQSLSITCTVSGFSLTTYGVDWVRQFPGKGLEWLGVIWGGGNTNYNSALMSRLSISKDTSKSQVFLKMNSLQTDDTAMYYCAKHKGTSHAMEYWGQGTSVTVSS
VL: QIVLTQSPAIMSASPGEKVTMTCSASSRVIFMYWYQQKPGSSPRLLIYDTSNLASGVPVRFSGGGSGTSYSLTISRMEAEDAATYYCQQWSSYPPTFGAGTKLELK
B4: 10E11 (antibody, V domains shown)
VH: EVQLQQSGPELVKPGDSVKISCKASGYSSTGYFMNWVMQSHGKSLEWIGRIIPYNGDTFYNQKFKDKATLTVDKSSNTAHLELRSLTSEDSVVYYCAGPRIGGDYDGGSWLAYWGQGTLVTVSA
VL: DIVMTQSQKFMSTTVGDRVSITCKASQNVGTAVAWYQQKPGHSPKLLIYSASNRYTGVPDRFTGSGYGTDFTLTISNMQSEDLADYFCQQYNSYPLTFGAGTKLELK
B5: monoclonal antibody 16H11 (antibody, V domains shown)
VH: QVQLHQSGAELVKPGASVKISCKGSGYDFSNFWMNWVKQRPGKGLEWIGQIYPGDGEIKYNGKFKGKATLTADESSSTAYIHLSSLTSEDSAVYFCARDDYLRAMDYWGQGTSVTVSS
VL: DIQMTQSPASLSASVGETVTITCRASGNIHNYLAWFQQKQGKSPHFLVYSAKALADGVPSRFSGSGSGTQYSLKINSLQPEDFGTYYCQHFWSSPYTFGGGTKLEIK
notes: Parental antibody; The Methods capture antibodies on anti-mouse sensors
B6: 5G10 (antibody, V domains shown)
VH: EVKLEESGGGLVQPGGSMKVSCVASGFTFSNYWMNWVRQSPEKGLEWVAQIRLKSDNYATHYAESVKGRFTISRDDSKSSVYLQMNNLRAEDTGIYYCTEGDYDIFAYWGQGTLVTVSA
VL: DIQMTQTTSSLSASLGDRVTISCSASQGITNYLNWYQQKPDGTVKLLIYYTSILHSGVPSRFSGSGSGTDYSLTISNLEPEDIATYYCQQYSKPPYTFGGGTKLEIK
B7: 9D4 (antibody)
heavy chain variable region: QVTLKESGPGILQPSQTLSLTCSFSGFSLSTFGMGVGWIRQPSGKGLEWLAHIWWDDDKYYHPALKSRLTISKDTSNNQVFLKIANVDTAETATFYCARVERGYPLDHWGQGTTLRVSS
light chain variable region: DIVLTQSPASLAVSLGQRATISCRASQSVSSSSYSYMHWYQQKPGQPPKLLIKYASNLKSGVPARFSGSGSGTDFTLTIHPVEEEDTATYYCQHSWEIPPTFGGGTKLEIK
B8: 2G12 (antibody, V domains shown)
VH: QVQLQQPGAELVKPGASVKLSCKASGYTFTSYWMQWVKQRPGQGLEWIGEIDPSVSYTEYNQKFKGKATLTVDTSSSTAYMQLSSLTSEDSAVYFCARWSKDYYGMDYWGQGTSVTVSS
VL: DIVLTQSHKFMSTSVGDRVTITCKASQDVSTAVAWYQQKPGQSPKLLIYWTSTRHTGVPDRFTGSGSGTDHTLTISSVQAEDLALYYCHQQYSTPPTFGGGTKLEIK
B9: humanized 16H11-derived Fab, VH AK449-6 / VL AK418-2 (Fab, V domains shown)
VH: QVQLVQSGAEVKKPGSSVKVSCKGSGYDFSNFWMNWVRQAPGQGLEWMGGIYPGDGEIKYNQKFQGRVTITADESTSTAYMELSSLRSEDTAVYYCARDDYLRAMDIWGQGTMVTVSS
VL: DIQMTQSPSSLSASVGDRVTITCRASGNIHNYLAWYQQKPGKAPKFLLYSAKRLESGVPSRFSGSGSGTDYTLTISSLQPEDFATYYCQHFWSSPYTFGGGTKVEIK
notes: Measured as monovalent Fab; also called No. 30; VH449-6 and VL418-2
B10: humanized 16H11-derived Fab, VH AK463-2 / VL AK418-2 (Fab, V domains shown)
VH: B9 VH with G24A, G50Q, I107Y, M113L
VL: B9 VL
notes: Measured as monovalent Fab; also called No. 35; VH463-2 and VL418-2
B11: humanized 16H11-derived Fab, VH AK484-6 / VL AK448-3 (Fab, V domains shown)
VH: B9 VH with G24A, F32Y, G50Q
VL: B9 VL with G27Q, G100Q, V104L
notes: Measured as monovalent Fab; also called No. 43; VH484-6 and VL448-3
B12: humanized 16H11-derived Fab, VH AK485-5 / VL AK418-2 (Fab, V domains shown)
VH: B9 VH with G24A, W33A, G50Q
VL: B9 VL
notes: Measured as monovalent Fab; also called No. 45
B13: humanized 16H11-derived Fab, VH AK484-7 / VL AK448-3 (Fab, V domains shown)
VH: B9 VH with G24A, F32Y, G50Q, I107Y, M113L
VL: B9 VL with G27Q, G100Q, V104L
notes: Measured as monovalent Fab; also called No. 44; VH484-7 and VL448-3
B14: humanized 16H11-derived Fab, VH AK465-17 / VL AK419-2 (Fab, V domains shown)
VH: B9 VH with G24A, G50Q, N61A
VL: B9 VL with G27Q
notes: Measured as monovalent Fab; also called No. 40
B15: humanized 16H11-derived Fab, VH AK463-2 / VL AK448-3 (Fab, V domains shown)
VH: B9 VH with G24A, G50Q, I107Y, M113L
VL: B9 VL with G27Q, G100Q, V104L
notes: Measured as monovalent Fab; also called No. 36; Vh463-2 and VL448-3
B16: humanized 16H11-derived Fab, VH AK485-5 / VL AK448-3 (Fab, V domains shown)
VH: B9 VH with G24A, W33A, G50Q
VL: B9 VL with G27Q, G100Q, V104L
notes: Measured as monovalent Fab; also called No. 46
B17: humanized 16H11-derived Fab, VH AK449-6 / VL AK448-3 (Fab, V domains shown)
VH: B9 VH
VL: B9 VL with G27Q, G100Q, V104L
notes: Measured as monovalent Fab; also called No. 31
B18: humanized 16H11-derived Fab, VH AK465-17 / VL AK448-3 (Fab, V domains shown)
VH: B9 VH with G24A, G50Q, N61A
VL: B9 VL with G27Q, G100Q, V104L
notes: Measured as monovalent Fab; also called No. 41
B19: humanized 16H11-derived Fab, VH AK484-6 / VL AK418-2 (Fab, V domains shown)
VH: B9 VH with G24A, F32Y, G50Q
VL: B9 VL
notes: Measured as monovalent Fab; also called No. 42; VH484-6 and VL418-2
B20: humanized 16H11-derived Fab, VH AK485-4 / VL AK448-3 (Fab, V domains shown)
VH: B9 VH with G24A, W33A, G50Q, I107Y, M113L
VL: B9 VL with G27Q, G100Q, V104L
notes: Measured as monovalent Fab; also called No. 47
B21: humanized 16H11-derived Fab, VH AK465-17 / VL AK418-2 (Fab, V domains shown)
VH: B9 VH with G24A, G50Q, N61A
VL: B9 VL
notes: Measured as monovalent Fab; also called No. 39; FH465-17 and VL418-2
B22: humanized 16H11-derived Fab, VH AK463-2 / VL AK419-2 (Fab, V domains shown)
VH: B9 VH with G24A, G50Q, I107Y, M113L
VL: B9 VL with G27Q
notes: Measured as monovalent Fab; also called No. 38
B23: anti-Siglec-7 antibody 4B12 (antibody, V domains shown)
VH: EVQLQQSGPELVKPGASVKIPCKASGYTFTDYNMDWVKQSHEKSLEWIGDIDPHNGVTLYNQKFKDKATLTIDKSSNTAYMELRSLTSEDSAVYYCALTGSTYWGQGTLVTVSA
VL: DIVMTQSQKFMSTSVGDRVSVTCKASQNVGTNVAWYQQKPGQSPKAVIYSASYRNSGVPDRFTGSGSGTDFTLTISNVQSEDLTEYFCQQYNNYPYTFGGGTKLEIK
notes: Used as an AF647 conjugate for detection in the internalization assay; also called 4B12-AF647

Assays:
Siglec-7-ECD-Fc = target: T1, Siglec-7-ECD-Fc (human, UniProt Q9Y286 19-353); experiment: ligand blocking on cells, flow cytometry: antibody dilutions pre-mixed with 10 nM Siglec-7-ECD-Fc, then binding of Siglec-7-ECD-Fc to Siglec-7 ligands on A375 melanoma cells
T1 construct: also called recombinant Siglec-7-Fc fusion protein; Siglec-7-Fc; not shown: human Fc (huFc)
Description: Recombinant Siglec-7-Fc was added to A375 cells in the presence of anti-Siglec-7 antibodies at increasing concentrations and binding of the complex was detected on the cell surface.
Human melanoma cell line A375, which expresses high level of ligands for Siglec-7, was used to determine the blocking activity of anti-Siglec-7 antibodies in a cell based assay. Two-fold serial dilutions of anti-Siglec-7 antibodies (40 nM to 40 pM) were combined with 10 nM Siglec-7-ECD-Fc in FACS buffer (PBS/2% BSA) and incubated on ice for 30 minutes. 2.5×10e4 A375 cells per well were added to round bottom 96-well tissue culture plates in FACS buffer, plates were centrifuged at 400 g for 2 min, supernatant was removed and cells were re-suspended in 100 ul of the antibody-Siglec-7 complexes. After a 1 hour incubation on ice, cells were washed twice and incubated for 30 minutes with goat anti-human F(ab′)₂ fragment conjugated to AF647 (Jackson IR labs) at 1 ug/ml in FACS buffer. After two more washes, cells were fixed in PBS/2% PFA and acquired on a Novocyte flow cytometer (ACEA biosciences). IC₅₀ values for blocking were determined based on plotting mean fluorescence in the APC channel and analysis using Prism Graphpad software.

[1] = target: Siglec-7 on primary human cells (NK cells, CD8+ tumor-infiltrating T cells) (human) (UniProt Q9Y286)
Siglec-7-ECD [2] = target: T2, Siglec-7-ECD (human, UniProt Q9Y286 19-353); experiment: bio-layer interferometry (ForteBio): antibody captured on the sensor, Siglec-7-ECD as analyte, 1:1 global fit
T2 construct: also called p75; AIRM
Description: A panel of antibodies was evaluated for binding to Siglec-7. The results identified anti-Siglec-7 antibodies that have improved KD values compared to commercially available anti-Siglec-7 antibodies (FIG. 7).
Antibody binding analysis was carried out by bio-layer interferometry (ForteBio). […] Antibodies were captured on anti-mouse kinetic sensors at 0.5 ug/mL; Siglec-7-ECD was used as analyte and diluted in assay buffer from 50 nM to 1.56 nM with 2× dilutions. Two-minute associations were conducted, followed by 10-minute dissociations. Results were determined relative to a control empty reference AHC sensor, and analyzed using ForteBio analysis software with 1:1 global fit parameters.

[3] = target: Siglec-7 on primary human cells (NK cells, CD8+ tumor-infiltrating T cells) (human, UniProt Q9Y286 19-467); experiment: cell-based or functional assay
Siglec-7-ECD [4] = target: T2, Siglec-7-ECD; experiment: monovalent Fab; bio-layer interferometry (ForteBio) per Methods

T2 sequence (Q9Y286 19-353 limits assumed): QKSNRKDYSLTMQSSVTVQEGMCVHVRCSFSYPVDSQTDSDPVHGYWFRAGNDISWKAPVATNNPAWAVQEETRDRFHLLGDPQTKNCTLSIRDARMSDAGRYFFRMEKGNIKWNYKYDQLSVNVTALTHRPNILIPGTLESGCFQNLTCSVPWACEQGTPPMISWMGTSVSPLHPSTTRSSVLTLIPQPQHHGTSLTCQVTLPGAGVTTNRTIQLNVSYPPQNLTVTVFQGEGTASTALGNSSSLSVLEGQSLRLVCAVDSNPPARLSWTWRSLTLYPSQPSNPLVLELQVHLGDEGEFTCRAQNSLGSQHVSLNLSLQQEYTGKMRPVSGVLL
T1 sequence (Q9Y286 19-353): as the sequence (Q9Y286 19-353 limits assumed) above
Siglec-7 on primary human cells (NK cells, CD8+ tumor-infiltrating T cells), sequence (Q9Y286 19-467 limits assumed): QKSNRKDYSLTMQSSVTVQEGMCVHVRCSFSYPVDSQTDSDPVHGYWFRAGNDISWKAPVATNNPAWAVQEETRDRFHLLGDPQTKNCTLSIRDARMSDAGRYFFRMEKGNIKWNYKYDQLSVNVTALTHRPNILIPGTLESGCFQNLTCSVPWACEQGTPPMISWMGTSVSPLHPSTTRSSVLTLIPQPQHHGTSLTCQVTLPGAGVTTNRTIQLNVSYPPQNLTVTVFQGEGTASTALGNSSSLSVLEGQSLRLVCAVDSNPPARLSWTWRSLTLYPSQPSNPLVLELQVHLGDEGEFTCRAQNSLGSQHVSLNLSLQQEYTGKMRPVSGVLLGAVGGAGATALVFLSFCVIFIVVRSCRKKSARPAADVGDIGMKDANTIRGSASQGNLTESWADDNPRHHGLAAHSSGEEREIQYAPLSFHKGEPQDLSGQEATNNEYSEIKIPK
Siglec-7 on primary human cells (NK cells, CD8+ tumor-infiltrating T cells) (human), sequence (Q9Y286 19-467 limits assumed): as above

Molecule	Kd (Siglec-7-ECD [2]) [nM]	IC50 of Siglec-7 internalization on NK cells (24 h, PBMC; remaining surface Siglec-7 stained with 4B12-AF647) [3] [nM]	Kd (Siglec-7-ECD [4]) [nM]	other results
QA79 (antibody)	0.706	–	–	IC50 (Siglec-7-ECD-Fc): 7.49 nM; IC50 of Siglec-7 internalization on NK cells (24 h, PBMC; remaining surface Siglec-7 stained with 4B12-AF647) [1]: 0.326 nM
B1	0.001	0.0206	–	–
B2	–	0.0175	–	–
B3	0.001	0.0149	–	–
B4	0.522	0.0493	–	IC50 (Siglec-7-ECD-Fc): 6.23 nM
B5	0.035	0.0106	–	IC50 (Siglec-7-ECD-Fc): 7.42 nM
B6	0.001	0.206	–	IC50 (Siglec-7-ECD-Fc): 3.07 nM
B7	0.76	0.0875	–	IC50 (Siglec-7-ECD-Fc): 1.41 nM
B8	0.205	0.0673	–	IC50 (Siglec-7-ECD-Fc): 19.8 nM
B9	–	–	< 0.1	–
B10	–	–	< 0.075	–
B11	–	–	< 0.075	–
B12	–	–	> 0.5	–
B13	–	–	< 0.075	–
B14	–	–	0.15 to 0.25	–
B15	–	–	< 0.075	–
B16	–	–	> 0.5	–
B17	–	–	0.05 to 0.1	–
B18	–	–	0.1 to 0.15	–
B19	–	–	< 0.1	–
B20	–	–	> 0.5	–
B21	–	–	< 0.075	–
B22	–	–	> 0.5	–
B23	0.26	–	–	–
